Data from article PMC4073527.

Target: LRIM1 (An. gambiae)
Assay: non-reducing SDS-PAGE western blot

stoichiometry N: 2
Substance: LRIM1 (natural protein)
